Reference: the supplement of paper PMC10567573

B1: ZNF263 (parent)
chain: FGGNPRFLSLHRAHLGEEAHKCLE
B2: SMTNL2 (parent)
chain: QKNFELAFTMAENLANCERLIEVE

Variants of: B1
Assay: protein stability index of a GFP-peptide fusion (GPS, HEK-293T) (PSI 1-6); higher = more stable
Settings: c terminus: a fixed tail appended
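Also: lentivirally expressed fusions sorted by FACS into six bins by GFP to DsRed ratio, PSI derived from sequencing read proportions per bin multiplied by bin number.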

Protein stability index: each site, then its substitutions
L23: E 1.97; T 2.51; V 1.83; R 1.7; H 1.97; S 1.63; I 2.02; K 1.91; F 1.8; A 2.65; C 1.97; N 2.21; P 2.02; D 1.63; M 1.96; W 1.75; G 1.76; Y 1.75; Q 1.92
K21: C 1.98; N 2; S 1.85; D 1.86; W 1.6; P 2.13; R 1.05; E 1.76; L 2.14; Q 2; A 1.77; I 2.14; G 1.9; Y 1.71; H 1.89; V 1.38; F 2.17; T 2.04; M 2.76
E24: M 2.31; S 2.75; C 2.15; L 2.52; G 1.72; D 1.71; R 1.75; Q 2.37; N 1.48; W 3.02; H 1.69; V 2.88; P 1.63; F 1.7; K 1.76; A 1.77; I 1.51; Y 1.51; T 1.56
C22: L 1.38; E 2.19; Q 2.66; W 1.46; P 2.44; I 1.59; T 1.47; D 2.15; H 2.44; N 2.17; S 3.62; M 1.74; F 1.74; Y 1.88; V 2.51; K 2; R 1.75; G 1.62; A 1.78

Variants of: B2
Assay: as above
Settings: c terminus: a fixed tail appended

Protein stability index, by site and new letter:
R19: L 1.55; G 2.92; P 3.57; M 2.86; I 2.57; Q 1.9; A 1.84; K 1.52; W 3.89; T 2.61; H 1.97; C 1.83
E5: C 2.87; N 2.96; L 1.72; Q 1.25; T 1.94; K 2.24; H 1.96; D 1.59; G 2.52; S 1.39; R 3.01; A 1.62
K2: M 1.7; H 1.13; S 1.76; R 2.34; L 1.78; P 2.24; E 1.84; D 2.51; C 1.77; I 2.71
V23: G 2.04; F 2.36; T 3.11; K 1.66; W 1.63; R 2.21; E 2.93; N 1.69; S 2.25; L 2.34; D 1.77; C 2.21; H 2.73; M 4.25; Q 1.3
A11: W 2.75; C 3.46; R 3.03; E 3.78; G 2.04; K 2.29; H 3.39; M 1.49; D 3.85; P 3.85; Q 1.62
Q1: L 1.86; Y 1.97; P 2.56; K 2.58; V 1.54; D 1.28; T 1.26
A7: H 2.16; F 1.88; L 1.22; Q 2.58; M 1.73; Y 2.08; T 2.2; S 1.78; K 2.98; E 1.68; D 2.85; W 2.26
E22: A 3.4; P 2.82; T 3.65; K 2.71; M 2.94; D 1.72
I21: F 2.29; D 4.39; C 3.27; N 3.95; M 2.61; E 4.62; V 2.96; W 3.67; R 2.44; H 3.17; T 4.29; Y 2.99; Q 3.72; G 3.85
F4: Y 1.98; I 2.53; P 4.09; R 3.06; V 2.87; K 4.05; A 2.45; D 3.72; S 3.4; H 1.98; G 3.73
N3: D 3.28; S 1.78; E 1.61; R 1.76; M 3.62; I 3.48; Q 1.81; T 2.09; V 3.1; W 3.6
E18: A 2.09; D 2.98; T 2.18; C 2.68; V 1; L 1.59; Y 3.75; I 4.4; S 2.65; M 2.73; P 2.6; Q 1.97
L14: D 4.44; I 2.89; E 4.23; M 2.02; N 2.72; P 3.89
N13: G 2.19; F 2.82; W 2; C 2.69; T 1.8; E 2.21; K 1.95; I 2.98
L6: N 2.91; I 2.12; A 3.32; E 2.46; P 3.62; H 2.55; V 2.04; S 2.19; F 1.91; K 2.65
T9: K 1.39; W 2.96; R 1.13; P 3.3; V 2.5; D 2.74; A 1.37; I 3.12; H 1.96; N 2.37
E24: C 1.42; T 1.95; R 2.4; F 3.44; P 2.15; M 1.89; H 1.6; I 1.03; V 1.45; N 2.11; A 2.84; L 1.56; S 1.36; G 2.13; D 1.62; Y 2.13
F8: V 2.12; P 4.98; Q 3.61; Y 1.35; W 1.48; E 3.82; C 1.07; G 4.29; N 2.06; H 2.33
A15: H 2.1; V 2.83; F 1.45; S 1.46; D 3.49; E 3.11; P 2.93; N 2.04; T 1.32; R 1.38; L 1.52
C17: I 2.14; P 4.29; M 2.83; Q 2.79; T 1.39; K 3.5; G 2.98; Y 2.78; R 3.51; D 3.98; F 2.14
M10: S 3.88; G 4.33; D 4.64; F 3.08; R 3.77; C 3.37; Y 3.45; Q 4.38; P 3.66; E 4.17; A 3.87; L 1.66
N16: W 3.51; C 1.85; Y 2.33; P 2.8; F 1.36; V 2.61; I 2.83; L 2.73; K 3.84; M 1.34
L20: K 2.46; I 2.31; M 1.35; S 3.52; R 2.12; D 4.42; A 2.55; E 2.92; G 2.97; F 2.15; W 1.38; H 2.69; V 1.27
E12: K 2.05; I 1.74; N 2.6; G 1.98; Q 1.87; T 1.86; L 2.69; R 1.33; S 4
